This note sets out measurements from patent publication US20070092518A1 (published 2007).

Residue numbers refer to the chain shown, from its start.

B1: SEQ ID NO 165 (Fab, V domains shown)
VH: EVQLVESGGGLVQPGGSLRLSCAASQFTFSNHYMNWVRQAPGKGLEWIGEIRSKSSYGATHYAESVKGRFIISRDGNKTDLYLEMNSLKTEDTAEYYCAQNYYGSTYDYWGQGTLVTVS
VL: EIVLTQSPDFQSVTPKEKVTITCRASQFVGSSIHWYQQKPDQSPKLLIKYASESMSGVPSRFSGSGSGTDFTFTISSLEAEDAATYYCQQSHSWPFTFGPGTKVDIK
notes: Fab, E. coli lysate
B2: SEQ ID NO 175 (Fab, V domains shown)
VH: B1 VH with A23R, Q26G, T28I, Y33W, S56I, Y57N, G76D, D80S, Y82T
VL: B1 VL
notes: Fab, E. coli lysate
B3: SEQ ID NO 174 (Fab, V domains shown)
VH: B1 VH with A23R, Q26G, F27S, G58S, H61S, G76D, Y82T, Y107P
VL: B1 VL
notes: Fab, E. coli lysate
B4: SEQ ID NO 169 (Fab, V domains shown)
VH: EVQLTESGGGLVQPGGSLRLSCAASGFIFSNHYMNWVRQAPGKGLEWIGEIRSKSINGATSYAESVKGRFIISRDDNGNDLTLEMNSLKTEDTAEYYCAQNYYGSTPDYWGQGTLVTVS
VL: B1 VL
notes: Fab, E. coli lysate
B5: SEQ ID NO 170 (Fab, V domains shown)
VH: B1 VH with Q26G, F27S, Y33W, S56I, Y57N, G58S, G76D, K78G, D80S
VL: B1 VL
notes: Fab, E. coli lysate
B6: SEQ ID NO 180 (Fab, V domains shown)
VH: B4 VH with T5V, A23R, I56S, G58S, S61H, G78K, N79T, D80S
VL: B1 VL
notes: Fab, E. coli lysate
B7: SEQ ID NO 171 (Fab, V domains shown)
VH: B4 VH with T5V, G26Q, F27S, I28T, N57Y, G58S, D80S, T82Y
VL: B1 VL
notes: Fab, E. coli lysate
B8: SEQ ID NO 177 (Fab, V domains shown)
VH: B4 VH with G26Q, F27S, I28T, I56S, G78K, P107Y
VL: B1 VL
notes: Fab, E. coli lysate
B9: SEQ ID NO 168 (Fab, V domains shown)
VH: B1 VH with V5T, F27S, Y33W, S56I, Y57N, H61S, D80S, Q100R, Y107P
VL: B1 VL
notes: Fab, E. coli lysate
B10: SEQ ID NO 172 (Fab, V domains shown)
VH: B4 VH with I28T, Y33W, N57Y, S61H, D76G, G78K
VL: B1 VL
notes: Fab, E. coli lysate
B11: SEQ ID NO 179 (Fab, V domains shown)
VH: B4 VH with G26Q, I28T, Y33W, I56S, S61H, N79T, D80S, Q100R
VL: B1 VL
notes: Fab, E. coli lysate
B12: SEQ ID NO 166 (Fab, V domains shown)
VH: B1 VH with T28I, S56I, Y57N, G58S, H61S, Q100R
VL: B1 VL
notes: Fab, E. coli lysate
B13: SEQ ID NO 182 (Fab, V domains shown)
VH: B1 VH with V5T, Q26G, S56I, G58S, K78G, Y107P
VL: B1 VL
notes: Fab, E. coli lysate
B14: SEQ ID NO 178 (Fab, V domains shown)
VH: B4 VH with T5V, I28T, N57Y, G58S, S61H, D76G, D80S, Q100R
VL: B1 VL
notes: Fab, E. coli lysate
B15: SEQ ID NO 181 (Fab, V domains shown)
VH: B1 VH with Q26G, Y33W, G58S, G76D, T79N, D80S, Y82T, Y107P
VL: B1 VL
notes: Fab, E. coli lysate
B16: SEQ ID NO 167 (Fab, V domains shown)
VH: B1 VH with Y33W, G76D, Y82T, Q100R
VL: B1 VL
notes: Fab, E. coli lysate

This test deals with T1, human tumor necrosis factor-α (rHuTNF-alpha, Biosource) (human, UniProt P01375 77-233).
T1 construct: Bought recombinant protein coated on ELISA plates; The TNFα of the Biacore assay is not described further; also called TNFα; human TNFα
T1 sequence (P01375 77-233 limits assumed): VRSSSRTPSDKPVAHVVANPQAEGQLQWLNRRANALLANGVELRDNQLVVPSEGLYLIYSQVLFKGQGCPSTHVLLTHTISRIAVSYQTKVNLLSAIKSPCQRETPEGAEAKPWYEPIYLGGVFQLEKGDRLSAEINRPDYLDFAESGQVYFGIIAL
Briefly: solid-phase ELISA, Fab lysate on coated rHuTNF-alpha. The method in brief: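 E. coli lysates expressing His-tagged Fab (pTrcHis2A) were incubated 2 h at RT on wells coated with 1 μg/ml rHuTNF-α and blocked with BSA. Bound Fab was detected with biotinylated anti-human kappa plus penta-His conjugates, then streptavidin-POD and TMB. Absorbance was read at 450 nm.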
On the technique in general: In an ELISA, binding on a coated surface is turned into a signal by an enzyme label.
For the molecule B1, the binding result is recorded as “binds”. On to B2, for which the binding result is “binds”. The entry for B3 is “binds”. With B4, the binding result was “binds”. In the case of B5, the binding result is “binds”. With B6, the binding result is reported as “binds”. B7: the binding result is “binds”. The entry for B8 is “binds”; for B9 it is “binds”. The entry for B10 is “binds”. Consider B11, for which the binding result is “binds”. Under B12 stands “binds”; under B13, “binds”; under B14, “binds”.

Turning to B15, the binding result is on record as “binds”.

With B16, the binding result is “binds”.
